Source: patent publication US20170016892A1, “LOCALIZED SURFACE PLASMON RESONANCE SENSING OF HUMAN PERFORMANCE BIOMARKERS USING SHORT PEPTIDE RECOGNITION ELEMENTS ON OPTICALLY ACTIVE METAL NANOSTRUCTURES” (Government of the United States as Represented by the …, priority 2015, published 2017)
Where no end group is shown, it is not given here.

Tests used:
cTnI [1] = molecular target: T1, cTnI (Homo sapiens, UniProt P19429); experiment: binding affinity of phage-display-identified peptide to cTnI; conditions: peptide identified from a phage display peptide library
T1 sequence (P19429 whole entry): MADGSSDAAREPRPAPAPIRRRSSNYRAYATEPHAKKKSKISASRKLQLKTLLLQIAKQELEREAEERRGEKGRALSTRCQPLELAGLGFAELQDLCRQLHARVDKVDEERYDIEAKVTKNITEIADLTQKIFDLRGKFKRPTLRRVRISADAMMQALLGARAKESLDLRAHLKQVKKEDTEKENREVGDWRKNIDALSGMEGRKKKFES
Description: Human troponin I binding peptide (Seq. ID No. 1), identified from a phage display peptide library, with nanomolar (nM) binding affinity to cTnI. Conjugation of the peptide to AuNR was achieved by introducing a cysteine resident at the C-terminus of the peptide (Seq. ID No. 2), to facilitate binding via an Au—S linkage.

cTnI [2] = molecular target: T1, cTnI; experiment: LSPR shift of BPDs on exposure to troponin in buffer; assay type: binding
Experimental: To probe the sensing capability of the BPDs, each BPD was exposed to troponin 1 (3.53 μg/mL in 0.1 M TBS, pH 8.0). […] The higher sensitivity of peptide-AuNR as compared to the sensitivity of the antibody-AuNR was believed to be due to differences in the thickness of the peptide and antibody adsorbate layer.
To probe the limit of detection in both the peptide- and antibody-AuNR BPDs, each BPD was exposed to varying concentrations of cTnI.

[3] = molecular target: human serum albumin (HSA) (Homo sapiens, UniProt P02768); experiment: selectivity of BPDs with human serum albumin as interfering protein (LSPR shift); assay type: binding; conditions: high concentrations of HSA
Description: To compare selectivity of both the peptide- and antibody-AuNR BPDs towards cTnI, human serum albumin (“HSA”) was used as an interfering protein.

[4] = thermal and shelf-life stability of BPDs by measured LSPR shift; assay type: physicochemical; conditions: incubated at 4° C. and at 60° C., each for 48 hrs
Experimental: To compare stability of both the peptide- and antibody-AuNR BPDs, each BPD type was incubated at 4° C. and at 60° C., each for 48 hrs. […] This reduction is believed to be due to antibody denaturation and lose molecular recognition at elevated temperatures.

cTnI [5] = molecular target: T1, cTnI; experiment: detection of troponin in human plasma with peptide-based BPDs (LSPR shift); assay type: binding
Experimental: (§1) Peptide-based BPDs prepared in accordance with embodiments of the present invention were used in detection of troponin in complex physiological fluids, including, for example, human plasma and sweat. To reduce nonspecific binding, the BPDs were first exposed to 1% HAS to block non-specific sites. […] The limit of detection of cTnI in human plasma was 353 pg/mL, which was within physiological relevant concentration range of troponin in human plasma (0.010 ng/mL to 10 ng/mL). […] Moreover, detection of troponin in artificial eccrine sweat at physiologically-relevant concentration was also accomplished (see, FIG. 16B).

troponin = troponin (Homo sapiens, UniProt P19429); experiment: detection of troponin in artificial eccrine sweat with peptide-based BPDs (LSPR shift); assay type: binding
troponin, sequence (P19429 whole entry): as above
Experimental: as §1

cardiac troponin I = molecular target: T2, cardiac troponin I (human, UniProt P19429 2-210, limits assumed); experiment: LSPR shift after troponin binding, peptide-AuNR against anti-cTnI-AuNR as reference
T2 construct: It was used in 0.1 M TBS pH 8.0, and spiked in human plasma and artificial eccrine sweat; also called cTnI; troponin 1
T2 sequence (P19429 2-210 limits assumed): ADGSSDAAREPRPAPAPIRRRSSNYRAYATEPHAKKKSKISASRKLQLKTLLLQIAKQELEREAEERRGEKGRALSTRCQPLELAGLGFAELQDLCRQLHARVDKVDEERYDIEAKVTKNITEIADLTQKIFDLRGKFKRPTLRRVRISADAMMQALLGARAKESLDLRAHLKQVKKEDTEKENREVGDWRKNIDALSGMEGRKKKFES

Human troponin I binding peptide: Human troponin I binding peptide (Seq. ID No. 1), identified from a phage display peptide library (FYSHSFHENWPS)
binding affinity to cTnI (cTnI [1]): nanomolar

peptide-AuNR: Troponin I binding peptide with C-terminal cysteine (Seq. ID No. 2) conjugated to gold nanorods via Au—S linkage, adsorbed on filter paper (FYSHSFHENWPSC; not fully specified (residue 13); also: conjugated to gold nanorods via Au–S bond of C-terminal Cys)
LSPR red shift on exposure to troponin (cTnI [2]; troponin 1 3.53 μg/mL in 0.1 M TBS, pH 8.0): 12.3 nm | limit of detection of cTnI (cTnI [2]; varying concentrations of cTnI): about 35.3 pg/mL | LSPR shift upon exposure to HSA [3]: small LSPR shifts | stability (measured LSPR shift after incubation) [4]: remarkable thermal and temporal stability | LSPR shift with increased troponin concentration (cTnI [5]): monotonic increase | limit of detection of cTnI in human plasma (cTnI [5]; BPDs first blocked with 1% HAS): 353 pg/mL | LSPR shift with increased troponin concentration (troponin): monotonic increase | detection of troponin at physiologically-relevant concentration (troponin): accomplished

B1: Human troponin I binding peptide with a cysteine residue introduced at the C-terminus (Seq. ID No. 2), conjugated to gold nanorods (AuNR) (peptide)
peptide: FYSHSFHENWPSC(AuNR)
notes: ID No. 1 is the parent phage-display peptide; ID No. 2 is the same peptide with an added C-terminal Cys, and it is the form on the AuNRs in the assays; also called peptide-AuNR
LSPR shift relative to antibodies as recognition elements (cardiac troponin I): ~100 % higher
